{"source": "paper PMC8927147", "about": "“Global profiling of regulatory elements in the histone benzoylation pathway” (Nature Communications, 2022)", "key": {"Sth1BD (S. cerevisiae)": {"biological_target": "Sth1BD (S. cerevisiae) (UniProt P32597)", "sequence (P32597 1248-1359)": "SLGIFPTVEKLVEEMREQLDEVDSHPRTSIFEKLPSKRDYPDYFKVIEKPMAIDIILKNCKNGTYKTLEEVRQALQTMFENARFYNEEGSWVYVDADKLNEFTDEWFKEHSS", "assay": "ITC; MicroCal ITC200, 20 °C, 25 mM Tris-HCl pH 8.0, 150 mM NaCl; peptides at 2.0 mM in the syringe titrated into reader domain at 0.1-0.2 mM in the cell; one-binding-site model"}, "[1]": {"biological_target": "H3K14ac peptide (Saccharomyces cerevisiae) (UniProt P61830)", "settings": "cited from earlier work"}, "[2]": {"biological_target": "H3K9cr peptide (Saccharomyces cerevisiae) (UniProt P61830)", "settings": "cited from earlier work"}, "[3]": {"biological_target": "H3K9ac peptide (Saccharomyces cerevisiae) (UniProt P61830)", "settings": "cited from earlier work"}}}
{"substance": "H3K14bz peptide", "values": [{"measurement": "Kd", "setting": "Sth1BD (S. cerevisiae)", "value": 89, "unit": "µM"}]}
{"substance": "Sth1 Bromodomain (from UniProt P32597)", "values": [{"measurement": "Kd", "setting": "[1]", "value": 16, "unit": "µM"}]}
{"substance": "Taf14 YEATS (from UniProt P35189)", "values": [{"measurement": "Kd", "setting": "[2]", "value": 75, "unit": "µM"}, {"measurement": "Kd", "setting": "[3]", "value": 334, "unit": "µM"}]}
